Measurements taken from patent US6034212.

Key:
[1] = target: GST-…; assay: blot of mutant ligand proteins probed with 32P-labelled GST-WW-YAP
[2] = target: GST-… fusion protein (mouse); assay: Western ligand blot, reference GST-WBP-1 (1-74)

fold reduction of binding against wild-type PY [1]: 2 fold
signal relative to the N-terminal construct [2]: 80%
Substance: GST-WW-YAP fusion protein (WW domain of human YAP in pGEX-2TK)
